Data as given in patent US20250114450A1, “PHARMACEUTICAL COMBINATION CONTAINING ANTI-PD-1-ANTI-VEGFA BISPECIFIC ANTIBODY, AND USE THEREOF” (Akeso Biopharma, Inc., priority 2021, published 2025).

Assays:
[1] = test system: MDA-MB-231 cells (human breast cancer cells); type: in vivo; conditions: VP101(hG1DM) 3 mg/kg weekly, olaparib 50 mg/kg daily, alone or in combination; FIG. 39
From the text: 23 days after grafting, the mice were randomly divided into 4 groups of 6 animals by tumor volume. The day of grouping was defined as DO, and olaparib dosing was started on day D0. […] The regimen of the combination therapy group is as follows: the drugs were formulated separately and administered sequentially (no certain order or time interval was required, and one treatment should be given after the completed administration of the other). After the administration, the length and width of tumors in each group were measured, and the tumor volume was calculated.

[2] = test system: SK-OV-3 human ovarian cancer cells; type: in vivo; conditions: VP101(hG1DM) 14 mg/kg weekly, olaparib 100 mg/kg daily, alone or in combination; FIG. 41
From the text: 39 days after grafting, the mice were intraperitoneally injected with 3 million activated PBMCs and randomly divided into 4 groups of 6 animals by tumor volume. The day of grouping was defined as D0, and dosing was started on the day of grouping D0. The regimen of the combination therapy group is as follows: the drugs were formulated separately and administered sequentially (no certain order or time interval was required, and one treatment should be given after the completed administration of the other). After the administration, the length and width of tumors in each group were measured, and the tumor volume was calculated.

FcγRIIIa_F158 = FcγRIIIa_F158 (Homo sapiens, UniProt P08637); experiment: Affinity constant assay to FcγRIIIa_F158 (Fortebio Octet); conditions: FcγRIIIa_F158 immobilized on HIS1K sensor, antibody 31.25-500 nM, 30° C., 1:1 model; N/A = no binding or extremely weak binding signal
Protocol: 5 μg/mL FcγRIIIa_F158 was immobilized on the HIS1K sensor for 120 s. The sensor was equilibrated in a buffer for 60 s, and the binding of the immobilized hFcGR3A(F158)-his on the sensor to the antibodies at concentrations of 31.25-500 nM (serial two-fold dilution) was determined for 60 s. The antibody was dissociated in the buffer for 60 s. The sensor was refreshed 4 times in 10 mM glycine pH 1.5, each for 5 s. The detection temperature was 30° C. and the frequency was 0.3 Hz. The data were analyzed by 1:1 model fitting to obtain affinity constants.

FcγRIIa_H131 = target: T1, FcγRIIa_H131 (Homo sapiens, UniProt P12318); experiment: Affinity constant assay to FcγRIIa_H131 (Fortebio Octet); conditions: FcγRIIa_H131 immobilized on NTA sensor, antibody 12.5-200 nM, 30° C., 1:1 model; N/A = no binding or extremely weak binding signal
T1 sequence (P12318 34-217 limits assumed): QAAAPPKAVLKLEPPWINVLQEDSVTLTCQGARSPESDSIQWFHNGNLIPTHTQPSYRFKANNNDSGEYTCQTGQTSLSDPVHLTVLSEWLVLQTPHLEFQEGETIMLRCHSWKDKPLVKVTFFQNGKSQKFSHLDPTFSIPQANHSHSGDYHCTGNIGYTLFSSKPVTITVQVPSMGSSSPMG
Protocol: The antibody was dissociated in the buffer for 60 s. The sensor was refreshed in 10 mM glycine pH 1.7 and 10 nM nickel sulfate. […] The data were analyzed by 1:1 model fitting to obtain affinity constants.

FcγRI = FcγRI (Homo sapiens, UniProt P12314); experiment: Affinity constant assay to FcγRI (Fortebio Octet); conditions: N/A = no binding or extremely weak binding signal
Protocol: 1 μg/mL FcγRIa was immobilized on the HIS1K sensor for 50 s. The sensor was equilibrated in a buffer for 60 s, and the binding of the immobilized CD64 on the sensor to the antibodies at concentrations of 3.12-50 nM (two-fold dilution) was determined for 120 s. The antibody was dissociated in the buffer for 120 s. The sensor was refreshed 4 times in 10 mM glycine pH 1.5, each for 5 s. The detection temperature was 30° C. and the frequency was 0.3 Hz. The data were analyzed by 1:1 model fitting to obtain affinity constants.

C1q = C1q (Homo sapiens, UniProt P02745+P02746+P02747); experiment: Affinity constant assay to C1q (Fortebio Octet); conditions: antibody immobilized on FAB2G sensor, C1q 0.625-10 nM, 30° C., 1:1 model; N/A = no binding or extremely weak binding signal
Protocol: 50 μg/mL antibody was immobilized on the FAB2G sensor at an immobilization height of about 2.0 nm. […] The antigen and antibody were dissociated in the buffer for 60 s. The sensor was refreshed 4 times in 10 mM glycine pH 1.7, each for 5 s. The shaking speed of the sample plate was 1000 rpm, the temperature was 30° C. and the frequency was 0.6 Hz. The data were analyzed by 1:1 model fitting to obtain affinity constants. The data acquisition software was Fortebio Data Acquisition 7.0, and the data analysis software was Fortebio Data Analysis 7.0.

[3] = test system: CHO-K1-PD1 cells overexpressing PD-1; experiment: ADCP activity assay, murine macrophages and CHO-K1-PD1 cells, flow cytometry; type: cell-based; conditions: murine macrophages + CHO-K1-PD1-CFSE cells, antibody 10, 1 and 0.1 μg/mL, 2 h, vs isotype control; FIG. 35
Protocol: The method is as follows:
The femoral bone marrow of C57 mice (purchased from Guangdong Medical Laboratory Animal Center) was first aseptically collected and lysed by erythrocyte lysis buffer on ice for 5 min. The lysis was terminated with DMEM complete medium (containing 10% FBS), and the lysate was centrifuged at 1000 rpm and washed twice. The cell pellet was resuspended in 10 mL of DMEM complete medium and M-CSF was added at a working concentration of 100 ng/mL. The cells were cultured for 7 days at 37° C. and 5% CO2 in a cell culture chamber for induction. Half of the medium was exchanged and M-CSF was added on Days 3 and 5. The induction of cells was completed on day 7. […] The supernatant was discarded and the cells were suspended in DMEM complete medium (containing 10% FBS) and counted. […] CHO-K1-PD1 cells were collected by conventional methods, centrifuged at 170×g for 5 min, resuspended, counted, analyzed for viability and washed once with PBS. […] The cells were counted, transferred to a 96-well plate and centrifuged at 1000×g for 5 min, and the supernatant was discarded. […]
Macrophages in the system were APC^+ positive, and macrophages involved in phagocytosis were APC and CFSE dual positive. The phagocytosis rate was determined as the ratio of the number of dual positive cells to the number of APC positive cells, and the antibody-mediated ADCP activity was evaluated. […]

Chain of FcγRI (P12314 16-374): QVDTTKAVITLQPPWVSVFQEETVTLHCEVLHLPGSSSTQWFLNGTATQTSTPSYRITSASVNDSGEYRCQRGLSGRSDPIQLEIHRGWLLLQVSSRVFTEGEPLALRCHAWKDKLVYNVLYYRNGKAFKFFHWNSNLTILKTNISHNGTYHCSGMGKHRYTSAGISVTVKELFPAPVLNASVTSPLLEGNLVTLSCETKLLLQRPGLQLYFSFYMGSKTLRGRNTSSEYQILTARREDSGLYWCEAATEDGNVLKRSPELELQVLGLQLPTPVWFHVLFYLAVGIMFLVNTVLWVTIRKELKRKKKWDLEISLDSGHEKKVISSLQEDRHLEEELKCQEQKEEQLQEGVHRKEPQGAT
Chain of FcγRIIIa_F158 (P08637 17-208 limits assumed): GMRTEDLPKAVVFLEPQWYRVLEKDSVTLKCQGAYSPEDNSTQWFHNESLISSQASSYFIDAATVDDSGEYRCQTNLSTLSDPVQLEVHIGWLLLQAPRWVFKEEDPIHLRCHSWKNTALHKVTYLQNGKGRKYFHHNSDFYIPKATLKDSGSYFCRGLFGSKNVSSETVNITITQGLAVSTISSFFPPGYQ
Chain of C1q (P02745 23-245): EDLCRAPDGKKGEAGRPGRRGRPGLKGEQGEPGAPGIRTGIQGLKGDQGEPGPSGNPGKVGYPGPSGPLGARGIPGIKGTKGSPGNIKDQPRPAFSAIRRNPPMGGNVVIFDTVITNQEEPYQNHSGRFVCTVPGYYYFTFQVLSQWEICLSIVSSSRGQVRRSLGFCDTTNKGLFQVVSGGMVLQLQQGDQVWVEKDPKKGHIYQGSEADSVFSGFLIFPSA
Chain of C1q (P02746 28-253): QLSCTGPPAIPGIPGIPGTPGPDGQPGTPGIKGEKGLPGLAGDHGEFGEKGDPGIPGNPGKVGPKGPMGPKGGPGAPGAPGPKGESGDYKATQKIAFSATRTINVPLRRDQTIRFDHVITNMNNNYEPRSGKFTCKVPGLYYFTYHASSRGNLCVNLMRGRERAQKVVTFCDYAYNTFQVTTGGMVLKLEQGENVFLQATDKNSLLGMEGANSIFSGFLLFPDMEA
Chain of C1q (P02747 29-245): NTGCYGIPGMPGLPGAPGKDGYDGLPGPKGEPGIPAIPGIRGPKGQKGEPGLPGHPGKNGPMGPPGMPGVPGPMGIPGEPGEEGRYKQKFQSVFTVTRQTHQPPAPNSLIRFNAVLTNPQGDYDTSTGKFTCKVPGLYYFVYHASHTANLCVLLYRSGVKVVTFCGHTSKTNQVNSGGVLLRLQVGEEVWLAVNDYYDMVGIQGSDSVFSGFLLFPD

Kd (FcγRI; FcγRIa immobilized on HIS1K sensor, antibody 3.12-50 nM, 30° C., 1:1 model) | Rmax to FcγRI (FcγRI) | kdis to FcγRI (FcγRI) | Molecule | tolerability / body weight of tumor-bearing mice [1] | tolerability / body weight of tumor-bearing mice [2] | KD (affinity constant) to FcγRIIIa_F158 (FcγRIIIa_F158) | KD (affinity constant) to FcγRIIa_H131 (FcγRIIa_H131) | KD (affinity constant) to C1q (C1q) | ADCP activity (phagocytic rate, P %) [3]
– | – | – | O=C(c1cc(Cc2n[nH]c(=O)c3ccccc23)ccc1F)N1CCN(C(=O)C2CC2)CC1 [olaparib] | no effect on the body weight | no effect on the body weight | – | – | – | –
6.2 nM | 0.48-0.53 nm | 0.00432 s⁻¹ | Nivolumab: approved PD-1 antibody (Opdivo) purchased from BMS as a reference antibody | – | – | no binding or an extremely weak binding signal | no binding or an extremely weak binding signal | no binding or an extremely weak binding signal | significant ADCP effect
